Laboratory results: paper PMC1636458 (Nucleic Acids Research, 2006)
Where two headings read alike, the source gives them in different places. Values belong to the binder of their own block, whether it stands above or below them.

Tests used:
[1] = biological target: T1, TBPm3 (altered specificity TATA-binding protein mutant) (UniProt P13393 1-240, I194F;V203T;L205V); experiment: EMSA kinetics
T1 sequence: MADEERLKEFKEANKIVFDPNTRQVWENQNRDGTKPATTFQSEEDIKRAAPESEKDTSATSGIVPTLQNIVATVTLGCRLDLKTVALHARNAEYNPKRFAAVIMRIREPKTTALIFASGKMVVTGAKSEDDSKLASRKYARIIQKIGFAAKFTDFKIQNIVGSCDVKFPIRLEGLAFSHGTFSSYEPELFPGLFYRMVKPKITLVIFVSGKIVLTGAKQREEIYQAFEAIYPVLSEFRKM

[2] = biological target: T1, TBPm3 (altered specificity TATA-binding …); experiment: MPE-Fe
[3] = biological target: T1, TBPm3 (altered specificity TATA-binding …); experiment: EMSA kinetics; remark: listed apart in the source
[4] = biological target: T2, Brf1 (TFIIB-related factor, subunit of TFIIIB) (S. cerevisiae, UniProt P29056 1-596); experiment: native gel or EMSA
T2 sequence (looked up): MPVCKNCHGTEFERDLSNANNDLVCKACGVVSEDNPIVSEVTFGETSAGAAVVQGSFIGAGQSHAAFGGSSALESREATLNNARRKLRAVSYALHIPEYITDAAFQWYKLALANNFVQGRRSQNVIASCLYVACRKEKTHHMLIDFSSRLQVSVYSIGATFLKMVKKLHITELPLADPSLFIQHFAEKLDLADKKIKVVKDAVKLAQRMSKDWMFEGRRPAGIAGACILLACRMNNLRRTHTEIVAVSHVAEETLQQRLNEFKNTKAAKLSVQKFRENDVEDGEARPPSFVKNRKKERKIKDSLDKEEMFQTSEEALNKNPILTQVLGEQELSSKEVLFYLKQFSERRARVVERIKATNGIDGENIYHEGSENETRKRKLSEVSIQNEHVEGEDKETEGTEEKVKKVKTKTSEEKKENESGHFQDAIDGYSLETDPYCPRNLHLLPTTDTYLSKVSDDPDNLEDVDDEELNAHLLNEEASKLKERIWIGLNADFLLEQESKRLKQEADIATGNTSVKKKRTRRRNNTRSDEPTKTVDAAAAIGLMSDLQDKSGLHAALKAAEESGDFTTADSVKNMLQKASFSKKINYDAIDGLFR

B1: TATA probe (U6 TATA box), 26 bp (dsDNA)
DNA 1: CGTGACTACTATAAATAGATGATCCG
DNA 2: CGGATCATCTATTTATAGTAGTCACG
Kd [1]: 0.3 nM

B2: 76 bp DNA with favored sequence TGTAAATTG (dsDNA)
DNA 1: CGCTGCAATCTCTTTTTCAATTGCTCCGGACTGTAAATTGGCGGTCCCTTACTCTTTCCTCAACAATTAACGGCCC
DNA 2: GGGCCGTTAATTGTTGAGGAAAGAGTAAGGGACCGCCAATTTACAGTCCGGAGCAATTGAAAAAGAGATTGCAGCG
binding result [2]: binds

B3: TGTA probe, 26 bp (dsDNA)
DNA 1: CGTGACTACTGTAAATAGATGATCCG
DNA 2: CGGATCATCTATTTACAGTAGTCACG
Kd [3]: 0.6 nM

binding result [4]: binds
B4: TBPm3 (altered specificity TATA-binding protein mutant) (natural protein, S. cerevisiae, UniProt P13393 1-240, looked up)
chain: T1 sequence
